Tests used:
[1] = biological target: Gαq/i (chimera between Gαq and Gαi), as used in fluorescence polarisation; assay: fluorescence polarisation; direct binding of HTH peptide and Gαq/i; conditions not given
[2] = biological target: 171L-graft, displayed on yeast (phage T4) (UniProt P00720); assay: flow cytometry on cells; yeast surface titration: yeast displaying the construct, biotinylated Gαq/i 1 nM to 7.5 μM with AlF4-, 1 h on ice, streptavidin-phycoerythrin; 10 mM HEPES pH 8.0, 150 mM NaCl, 10 mM MgCl2, 30 μM AlCl3, 10 mM NaF, 0.1% BSA; one-step isotherm, apparent KD
[3] = biological target: 1EBB-graft, displayed on yeast (Geobacillus stearothermophilus); assay: as above
[4] = biological target: HTH peptide of PLC-β3 with the mutations I860A and V866W, expressed on the surface of yeast; assay: as above

| Substance | Kd [1] [µM] | Kd [2] [µM] | Kd [3] [µM] | Kd [4] [µM] | fold increase of affinity against the original HTH peptide [1] [fold] |
| --- | --- | --- | --- | --- | --- |
| TAMRA-labeled HTH peptide (I860A) derived from PLC-β3 | 0.4 |  |  |  |  |
| biotinylated Gαq/i (chimera between Gαq and Gαi, with C-terminal avitag) |  | 1.7 | 2 | 0.4 |  |
| soluble HTH peptide of PLC-β3 with the V866W mutation | 0.29 |  |  |  | > 14 |
